Legend:
CRD from SRCL = CRD from SRCL (UniProt Q5KU26); experiment: radioligand binding
[1] = biological target: Lactoferrin from human neutrophils (human); experiment: SPR

Chain of UniProt Q5KU26 (Q5KU26 whole entry): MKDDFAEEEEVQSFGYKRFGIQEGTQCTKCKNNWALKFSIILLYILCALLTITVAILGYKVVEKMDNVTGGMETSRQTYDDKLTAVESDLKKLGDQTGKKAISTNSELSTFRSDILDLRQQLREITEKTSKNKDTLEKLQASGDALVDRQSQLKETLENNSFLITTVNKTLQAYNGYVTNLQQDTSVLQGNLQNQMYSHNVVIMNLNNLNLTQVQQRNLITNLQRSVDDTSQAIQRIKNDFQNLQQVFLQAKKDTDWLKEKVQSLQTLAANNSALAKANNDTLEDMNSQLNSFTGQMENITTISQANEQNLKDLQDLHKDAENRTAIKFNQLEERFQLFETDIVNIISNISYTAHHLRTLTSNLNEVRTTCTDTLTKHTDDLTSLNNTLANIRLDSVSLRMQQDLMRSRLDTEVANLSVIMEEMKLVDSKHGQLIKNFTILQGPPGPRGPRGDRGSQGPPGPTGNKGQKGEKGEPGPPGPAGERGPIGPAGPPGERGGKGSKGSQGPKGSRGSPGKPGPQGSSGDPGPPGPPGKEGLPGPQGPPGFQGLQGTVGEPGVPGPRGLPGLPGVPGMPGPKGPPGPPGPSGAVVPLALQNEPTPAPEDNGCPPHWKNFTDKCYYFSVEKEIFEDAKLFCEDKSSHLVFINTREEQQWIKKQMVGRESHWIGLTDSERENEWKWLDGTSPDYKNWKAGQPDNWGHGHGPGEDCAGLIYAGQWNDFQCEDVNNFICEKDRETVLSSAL

Substance	Ki (CRD from SRCL) [µM]	Kd [1] [µM]
Lactoferrin from human neutrophils (natural protein)	6.1	–
CRD from SRCL (from UniProt Q5KU26 1-742) (domain or fragment)	–	4.7
